Experimental findings from patent US20210319279A1 are described below.

The target in the assay is SBE FLAG9 (three 3xFLAG domains joined by rigid linkers) displayed on the yeast cell wall as a fusion to truncated FLO11 (S. cerevisiae) (UniProt P08640). Kind of assay: cell-based or functional assay.
Chain of UniProt P08640 (P08640 other isoform, or with tags, fused parts or gaps limits assumed): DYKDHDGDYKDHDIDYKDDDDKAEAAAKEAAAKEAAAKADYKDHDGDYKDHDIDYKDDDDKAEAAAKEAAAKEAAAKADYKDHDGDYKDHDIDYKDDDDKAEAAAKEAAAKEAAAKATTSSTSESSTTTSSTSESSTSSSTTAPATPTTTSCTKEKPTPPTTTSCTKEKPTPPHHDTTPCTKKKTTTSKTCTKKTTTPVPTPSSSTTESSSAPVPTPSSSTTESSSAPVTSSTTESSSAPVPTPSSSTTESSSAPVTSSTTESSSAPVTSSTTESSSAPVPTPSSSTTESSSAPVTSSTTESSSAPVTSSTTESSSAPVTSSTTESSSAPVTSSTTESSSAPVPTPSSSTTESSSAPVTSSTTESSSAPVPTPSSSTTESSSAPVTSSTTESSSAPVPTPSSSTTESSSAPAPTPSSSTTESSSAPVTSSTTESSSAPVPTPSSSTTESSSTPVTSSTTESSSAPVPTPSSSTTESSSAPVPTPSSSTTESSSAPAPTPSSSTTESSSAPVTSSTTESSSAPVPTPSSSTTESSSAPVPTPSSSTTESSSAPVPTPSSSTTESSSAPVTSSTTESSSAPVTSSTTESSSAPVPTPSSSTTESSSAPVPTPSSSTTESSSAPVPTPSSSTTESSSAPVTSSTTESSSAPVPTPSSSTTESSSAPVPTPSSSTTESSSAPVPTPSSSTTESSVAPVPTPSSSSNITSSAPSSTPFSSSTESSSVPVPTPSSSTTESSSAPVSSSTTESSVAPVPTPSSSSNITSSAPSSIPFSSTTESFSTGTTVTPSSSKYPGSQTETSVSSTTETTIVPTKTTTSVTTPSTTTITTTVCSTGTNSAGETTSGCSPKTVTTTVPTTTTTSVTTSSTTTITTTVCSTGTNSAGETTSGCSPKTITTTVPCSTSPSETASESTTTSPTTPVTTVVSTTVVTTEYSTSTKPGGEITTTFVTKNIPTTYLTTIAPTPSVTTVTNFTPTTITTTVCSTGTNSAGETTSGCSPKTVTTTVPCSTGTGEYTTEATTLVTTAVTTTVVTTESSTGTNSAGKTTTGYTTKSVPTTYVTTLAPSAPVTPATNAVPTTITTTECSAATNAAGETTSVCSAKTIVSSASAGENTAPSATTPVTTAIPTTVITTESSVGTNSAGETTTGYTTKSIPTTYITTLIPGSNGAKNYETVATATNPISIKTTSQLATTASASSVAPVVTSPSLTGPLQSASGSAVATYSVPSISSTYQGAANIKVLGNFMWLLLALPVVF

“anti-FLAG M2 antibody (A2220 Sigma-Aldrich), covalently linked to agarose beads” yielded a beta-lactamase reporter (nitrocefin-BLA analysis), fold-change against the negative control without beads; PIC assay with sX406, sX216 and regulatory sX437 of 2 fold; a beta-lactamase reporter, fold-change against the negative control; OR operation, Experiment A (BaF beads only) of 3 to 4 fold; a nitrocefin hydrolysis readout (image intensity), fold-increase against negative controls at 6 hrs; PIC assay with immobilization, strains sX384 and sX387, BaF beads of 6 to 10 fold.
